Non-standard residues stand in square brackets, D forms with d. No end group written: not given here. Nle = CCCC[C@H](N)C(=O)O

Data on 1 molecule can be found in patent publication US20080293634A1 (WASHINGTON STATE UNIVERSITY RESEARCH FOUNDATION, published 2008).

Assay [1] addresses T1, c-Met receptor on mouse liver plasma membranes (mouse, UniProt P16056 25-1379).
T1 construct: whole, on cells; Membrane preparation from mouse liver
Put plainly: competition with 50 pM ^125I-HGF for binding to mouse liver plasma membranes; mean ±SEM, n=3. The protocol:
Mouse liver plasma membranes were incubated with […] ¹²⁵I-HGF and the indicated concentrations of HGF or Norleual. Results are presented as percent of specific ¹²⁵I-HGF binding and error bars indicate±standard error of mean (SEM). Competition experiments included quadruplicate data points and each experiment was repeated in triplicate.
(§1) ¹²⁵I-HGF binding assay. Mouse liver was homogenized in hypotonic buffer fortified with 0.1% bovine serum albumin as described by Hanesworth et al. (1993). 600 μg of membrane protein was incubated with 50 pM ¹²⁵I-HGF with various concentrations of HGF or Norleual in a total volume of 100 μl phosphate-buffered saline (PBS) fortified with 0.1% BSA. Binding occurred for one hour on ice. Membranes were pelleted by centrifugation and washed twice with incubation buffer. Radioactivity was counted with a gamma counter (Isomedic 10/880, ICN, Cost Mesa, Calif., USA). Specific binding was calculated and normalized to control counts. Competition fits by Prism software (GraphicPad, San Diego, Calif.) were performed according to the manufacturer's instructions.
Materials and methods were as described in Example 1. In separate tests of unlabeled competitors, both Norleual and HGF competed with ¹²⁵I-HGF for high affinity binding to mouse liver plasma membranes (FIGS. 2A, 2B). […]

In assay [2] the target is T1, c-Met receptor on mouse liver plasma …. Put plainly: competition with ^125I-HGF at various concentrations of COMPOUND 2 (mouse liver membranes). The protocol: as §1
Briefly, COMPOUND 2 was iodinated with […] and bound and cross-linked to HEK cell membranes with or without 1 nM COMPOUND 2 or 1 nM hepatocyte growth factor. Following solubilization and separation of free label by molecular sieving, total radioactive counts were determined. The ability of the ligand COMPOUND 2 to compete with hepatocyte growth factor binding to the c-Met receptor was also tested using mouse liver plasma membranes and intact HEK293 cells. […] Membranes were pelleted and unbound label was removed by washing, and total radioactive counts were determined. […]

In assay [3] the target is T2, c-Met receptor on human cells (HEK293 cells and membranes, HUVEC) (human, UniProt P08581 25-1390).
T2 construct: Endogenous receptor of human embryonic kidney HEK293 cells, HEK293 membranes and HUVEC; also called hepatocyte growth factor receptor; HGF-R
Put plainly: unlabeled Norleual against ^125I-Norleual on HEK293 membranes; two-site competition fit, low-affinity site. The protocol: (§2) FIG. 3C: ¹²⁵I-Norleual was bound to HEK membranes in the presence or absence of 1.5 nM HGF (n=8) or 1 μM Norleual (n=6). Total binding is reported as percent control (n=10), (*p<0.001). Error bars indicate±SD. […] Error bars indicate SD and data points were performed in duplicate.
(§3) ¹²⁵I-Norleual binding assay. HEK293 cells were grown to confluency in DMEM fortified with 10% FBS. Media was aspirated and cells were washed twice with ice-cold PBS. Cells were lysed with hypotonic buffer and homogenized as described by Zhang et al. (1999, J. Pharmacol. Exp. Ther. 289: 1075-1083; 2003 J. Cell Biochem. 88: 408-417). 450 μg of membrane protein was incubated with 1.5 nM ¹²⁵I-Norleual with or without Norleual or HGF in a total volume of 250 μl PBS, 0.1% BSA. Tubes were spun and binding was carried out for 60 minutes at RT. Bound and free ligands were separated by vacuum filtration using (Brandel Cell Harvester, Schleicher & Schull, Keene, N.H., USA) 32 glass filters. Radioactivity retained by the filters was measured using a gamma counter. […] Data analysis was preformed using Prism software (GraphicPad) per the supplier's recommendations.

For assay [4], the target named is T2, c-Met receptor on human cells (HEK293 …). Put plainly: unlabeled Norleual against ^125I-Norleual on HEK293 membranes; two-site competition fit, high-affinity site. The protocol: as §2, §3

T1 sequence (P16056 25-1379): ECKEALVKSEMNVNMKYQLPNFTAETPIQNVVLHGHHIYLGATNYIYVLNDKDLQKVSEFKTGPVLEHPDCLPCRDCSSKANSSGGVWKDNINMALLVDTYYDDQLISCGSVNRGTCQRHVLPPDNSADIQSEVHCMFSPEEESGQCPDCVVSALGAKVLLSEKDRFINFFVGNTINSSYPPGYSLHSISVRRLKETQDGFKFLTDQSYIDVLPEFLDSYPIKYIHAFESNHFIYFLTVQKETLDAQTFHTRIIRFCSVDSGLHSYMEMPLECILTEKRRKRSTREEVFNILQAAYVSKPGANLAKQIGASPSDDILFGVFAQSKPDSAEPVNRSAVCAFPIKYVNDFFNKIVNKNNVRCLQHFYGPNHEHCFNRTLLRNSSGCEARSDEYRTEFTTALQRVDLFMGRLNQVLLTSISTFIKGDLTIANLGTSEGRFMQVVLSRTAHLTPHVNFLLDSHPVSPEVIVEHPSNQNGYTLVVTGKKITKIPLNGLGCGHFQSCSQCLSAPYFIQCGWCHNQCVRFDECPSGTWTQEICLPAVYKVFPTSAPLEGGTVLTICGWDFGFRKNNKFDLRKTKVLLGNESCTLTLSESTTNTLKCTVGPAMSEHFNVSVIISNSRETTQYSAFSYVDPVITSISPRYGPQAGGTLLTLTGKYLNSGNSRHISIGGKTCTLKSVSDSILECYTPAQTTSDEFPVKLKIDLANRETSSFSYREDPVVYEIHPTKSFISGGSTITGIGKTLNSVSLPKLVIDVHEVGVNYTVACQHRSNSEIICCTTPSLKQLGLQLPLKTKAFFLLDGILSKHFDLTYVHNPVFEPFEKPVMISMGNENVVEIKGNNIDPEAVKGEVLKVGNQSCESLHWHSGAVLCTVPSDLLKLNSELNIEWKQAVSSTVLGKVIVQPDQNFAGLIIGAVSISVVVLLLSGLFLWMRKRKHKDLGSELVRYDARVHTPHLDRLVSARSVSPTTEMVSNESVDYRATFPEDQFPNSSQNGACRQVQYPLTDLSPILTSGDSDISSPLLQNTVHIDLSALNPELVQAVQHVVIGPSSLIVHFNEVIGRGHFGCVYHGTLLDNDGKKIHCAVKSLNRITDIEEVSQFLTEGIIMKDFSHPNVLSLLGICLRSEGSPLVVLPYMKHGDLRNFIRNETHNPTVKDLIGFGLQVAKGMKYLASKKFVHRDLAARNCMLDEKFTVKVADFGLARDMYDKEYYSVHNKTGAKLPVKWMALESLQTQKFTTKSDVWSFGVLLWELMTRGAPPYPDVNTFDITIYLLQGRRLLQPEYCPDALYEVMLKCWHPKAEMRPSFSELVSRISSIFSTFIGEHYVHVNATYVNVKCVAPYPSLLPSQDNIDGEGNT
T2 sequence (P08581 other isoform, or with tags, fused parts or gaps limits assumed): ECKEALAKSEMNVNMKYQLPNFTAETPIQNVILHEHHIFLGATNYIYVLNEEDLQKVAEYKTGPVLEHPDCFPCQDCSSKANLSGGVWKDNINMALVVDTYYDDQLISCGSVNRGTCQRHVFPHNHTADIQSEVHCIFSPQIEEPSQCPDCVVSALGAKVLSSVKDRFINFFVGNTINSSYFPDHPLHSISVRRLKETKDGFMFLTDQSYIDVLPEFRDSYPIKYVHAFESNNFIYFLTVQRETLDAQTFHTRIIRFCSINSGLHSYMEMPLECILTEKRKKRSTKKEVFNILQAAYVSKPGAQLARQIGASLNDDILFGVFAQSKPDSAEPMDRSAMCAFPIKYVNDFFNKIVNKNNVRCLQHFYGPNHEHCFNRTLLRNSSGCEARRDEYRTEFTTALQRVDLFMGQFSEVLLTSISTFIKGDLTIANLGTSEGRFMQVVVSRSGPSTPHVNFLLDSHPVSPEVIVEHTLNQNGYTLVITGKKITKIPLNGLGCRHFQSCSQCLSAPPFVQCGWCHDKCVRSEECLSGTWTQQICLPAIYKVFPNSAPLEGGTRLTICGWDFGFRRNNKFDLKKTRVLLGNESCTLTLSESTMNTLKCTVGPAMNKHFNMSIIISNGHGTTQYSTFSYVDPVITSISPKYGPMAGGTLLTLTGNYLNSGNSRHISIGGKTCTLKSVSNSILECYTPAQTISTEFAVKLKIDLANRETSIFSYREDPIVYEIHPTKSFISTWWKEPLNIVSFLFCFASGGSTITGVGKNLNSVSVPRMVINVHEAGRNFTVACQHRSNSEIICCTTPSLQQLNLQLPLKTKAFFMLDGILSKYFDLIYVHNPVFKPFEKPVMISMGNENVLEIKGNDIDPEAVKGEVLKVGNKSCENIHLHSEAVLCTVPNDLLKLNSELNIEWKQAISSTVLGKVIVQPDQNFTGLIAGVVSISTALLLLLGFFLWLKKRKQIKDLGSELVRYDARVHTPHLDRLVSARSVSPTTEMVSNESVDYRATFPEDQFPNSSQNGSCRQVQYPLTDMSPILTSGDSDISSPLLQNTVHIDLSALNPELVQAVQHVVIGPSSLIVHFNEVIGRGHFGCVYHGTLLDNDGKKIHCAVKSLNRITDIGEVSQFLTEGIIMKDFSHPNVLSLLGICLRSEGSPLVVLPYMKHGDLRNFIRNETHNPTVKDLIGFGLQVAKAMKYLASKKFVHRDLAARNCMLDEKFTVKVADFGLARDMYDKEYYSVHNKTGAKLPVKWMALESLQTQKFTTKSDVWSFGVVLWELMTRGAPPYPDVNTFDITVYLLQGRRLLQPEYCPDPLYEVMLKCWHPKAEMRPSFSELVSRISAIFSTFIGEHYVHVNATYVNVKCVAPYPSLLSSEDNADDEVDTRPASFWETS

B1: Norleual (Nle-Tyr-Leu-ψ-(CH2-NH2)-His-Pro-Phe) (peptide)
peptide: [Nle]YLHPF
modifications: not fully specified; printed as Nle-Tyr-Leu-ψ-(CH2-NH2)-His-Pro-Phe; also: reduced peptide bond ψ(CH2-NH) between Leu3 and His4
notes: Synthesized by Syngene and purified by reverse phase HPLC; Peptidomimetic hexapeptide; also called Compound 2; COMPOUND 2
Regarding B1, the values for the IC50 in assay [1], in assay [3] and in assay [4] were 0.0031 nM, 7.4 nM and 0.048 nM, respectively. For the same molecule, the Kd in assay [2] is about 0.003 nM.

As usually defined, the IC50 is the concentration needed to halve the response being measured. As usually defined, the Kd is a measure of binding affinity in units of concentration. A low value points to a tighter complex.
